Experimental data reported in the supplement of paper PMC7877785.
± gives the uncertainty stated by the source.

Experiment: self-splicing fitness, log relative to wild type (ln ratio); higher = more splicing; Tetrahymena group I intron in knt gene, E. coli kanamycin selection, DiMSum; sequences stand for … in CUCUCU…GGAGGGAAAAGUUAUCAGGCAUGCACCUGGUAGCUAGUCUUUAAACCAAUAGAUUGCAUCGGUUUAAAAGGCAAGACCGUCAAAUUGCGGGAAAGGGGUCAACAGCCGUUCAGUACCAAGUCUCAGGGGAAACUUUGAGAUGGCCUUGCAAAGGGUAUGGUAAUAAGCUGACGGACAUGGUCCUAACCACGCAGCCAAGUCCUAAGUCAACAGAUCUUCUGUUGAUAUGGAUGCAGUUCACAGACUAAAUGUCGGUCGGGGAAGAUGUAUUCUUCUCAUAAGAUAUAGUCGGACCUCUCCUUAAUGGGAGCUAGCGGAUGAAGUGAUGCAACACUGGAGCCGCUGGGAACUAAUUUGUAUGCGAAAGUAUAUUGAUUAGUUUUGGAGUACUCGUGGUCG
Method in brief: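 A randomised library covering all eight P1ex-region intron nucleotides was built with the intron in the knt kanamycin-resistance gene on pET-22b(+) and held in E. coli BL21(DE3). Cells were grown overnight at 37°C or 30°C on LB agar, with or without 25 μg/mL kanamycin, plus 100 μg/mL carbenicillin, 50 μM IPTG and 0.2% rhamnose, and pooled colonies were amplicon-sequenced on an Illumina HiSeq 2500. DiMSum fitness is the error-weighted combination of wild-type-normalised replicate fold changes, kanamycin versus none.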

Sequence | self-splicing fitness (ln) (30 °C) | self-splicing fitness (ln) (37 °C)
AUUCAGCAAUAUUACGUGGU | -3 ± 0.12 | -0.786 ± 0.099
AUUCAGCAAUAUUACGUUCG | -0.646 ± 0.06 | -0.898 ± 0.094
AUUGAGCAAUAUUACGACGU | -0.46 ± 0.12 | -0.115 ± 0.13
AUUGAGCAAUAUUACGACUG |  | -0.882 ± 0.25
AUUGAGCAAUAUUACGAUGC | -1.58 ± 0.38 | 
AUUGAGCAAUAUUACGAUGG | -2.84 ± 0.25 | 
AUUGAGCAAUAUUACGAUUG | -3.62 ± 0.3 | -3.11 ± 0.26
AUUGAGCAAUAUUACGCGCC | -1.62 ± 0.48 | 
AUUGAGCAAUAUUACGCUCA |  | -1.62 ± 0.4
AUUGAGCAAUAUUACGCUUG | -2.91 ± 0.18 | -0.989 ± 0.18
AUUGAGCAAUAUUACGGAAU | -1.59 ± 0.17 | -1.28 ± 0.2
AUUGAGCAAUAUUACGGAUG | -3.43 ± 0.28 | -2.69 ± 0.38
AUUGAGCAAUAUUACGGCGA | -1.96 ± 0.16 | -0.878 ± 0.15
AUUGAGCAAUAUUACGGCUG | -1.83 ± 0.14 | -1.81 ± 0.17
AUUGAGCAAUAUUACGGGCA | -2.81 ± 0.23 | -2.3 ± 0.29
AUUGAGCAAUAUUACGGUAC |  | -1.72 ± 0.31
AUUGAGCAAUAUUACGGUCA | -2.13 ± 0.19 | -0.756 ± 0.13
AUUGAGCAAUAUUACGUAAU | -1.68 ± 0.13 | -0.364 ± 0.19
AUUGAGCAAUAUUACGUCAA | -3.05 ± 0.26 | -2.6 ± 0.28
AUUGAGCAAUAUUACGUGCU | -3.03 ± 0.24 | -3.17 ± 0.35
AUUGAGCAAUAUUACGUGUC | -4.77 ± 0.26 | -2.53 ± 0.15
AUUUAGCAAUAUUACGAACG | -0.287 ± 0.16 | -0.464 ± 0.29
AUUUAGCAAUAUUACGACCG | -1.54 ± 0.24 | -0.522 ± 0.23
AUUUAGCAAUAUUACGAGCG | -2.66 ± 0.23 | -1.05 ± 0.2
AUUUAGCAAUAUUACGAUGG | -2.89 ± 0.34 | 

Sequence | self-splicing fitness (ln) (30 °C) | self-splicing fitness (ln) (37 °C)
AUUUAGCAAUAUUACGCAGG | -3.36 ± 0.38 | 
AUUUAGCAAUAUUACGCCGA | -1.94 ± 0.28 | -1.09 ± 0.23
AUUUAGCAAUAUUACGCUAA | -2.13 ± 0.23 | -1.3 ± 0.31
AUUUAGCAAUAUUACGGAGG | -2.53 ± 0.19 | -2.06 ± 0.27
AUUUAGCAAUAUUACGGCCG | -1.29 ± 0.15 | -1.6 ± 0.15
AUUUAGCAAUAUUACGGUUA | -0.84 ± 0.16 | -0.183 ± 0.13
AUUUAGCAAUAUUACGGUUU | -1.02 ± 0.096 | -0.0857 ± 0.12
AUUUAGCAAUAUUACGUAAA | -2.28 ± 0.21 | -1.09 ± 0.18
AUUUAGCAAUAUUACGUCAC | -3.2 ± 0.37 | -1.42 ± 0.32
AUUUAGCAAUAUUACGUCCU | -0.237 ± 0.16 | 0.18 ± 0.23
AUUUAGCAAUAUUACGUGAU | -0.978 ± 0.12 | -0.863 ± 0.12
AUUUAGCAAUAUUACGUGUA | -2.42 ± 0.23 | -1.5 ± 0.17
AUUUAGCAAUAUUACGUGUU | -1.73 ± 0.14 | 0.39 ± 0.14
CAAAAGCAAUAUUACGAAAG | -0.791 ± 0.077 | -0.705 ± 0.097
CAAAAGCAAUAUUACGAACU | -2.51 ± 0.19 | -1.3 ± 0.21
CAAAAGCAAUAUUACGAAGG | -1.87 ± 0.11 | -0.758 ± 0.13
CAAAAGCAAUAUUACGAAUU | -3.52 ± 0.18 | -2.27 ± 0.22
CAAAAGCAAUAUUACGACAG | -0.12 ± 0.062 | -0.154 ± 0.083
CAAAAGCAAUAUUACGACUA | -1.52 ± 0.13 | -0.952 ± 0.12
CAAAAGCAAUAUUACGACUU | -1.83 ± 0.098 | -0.224 ± 0.098
CAAAAGCAAUAUUACGAGAA | -1.51 ± 0.24 | -2.47 ± 0.25
CAAAAGCAAUAUUACGAGCC | -3.49 ± 0.3 | 
CAAAAGCAAUAUUACGAGCG | -0.129 ± 0.077 | 0.342 ± 0.097
CAAAAGCAAUAUUACGAUAG | -0.0755 ± 0.065 | 0.3 ± 0.083
CAAAAGCAAUAUUACGAUCG | 0.0933 ± 0.07 | 0.514 ± 0.09

Sequence | self-splicing fitness (ln) (30 °C) | self-splicing fitness (ln) (37 °C)
CAAAAGCAAUAUUACGCACA | -1.75 ± 0.1 | -0.746 ± 0.11
CAAAAGCAAUAUUACGCACG | -1.5 ± 0.098 | -0.59 ± 0.12
CAAAAGCAAUAUUACGCCAA | -3.4 ± 0.36 | -2.1 ± 0.24
CAAAAGCAAUAUUACGCCAG | -0.849 ± 0.075 | -1.32 ± 0.09
CAAAAGCAAUAUUACGCCCC | -3.27 ± 0.3 | 
CAAAAGCAAUAUUACGCUUU | -3.96 ± 0.21 | -2.55 ± 0.17
CAAAAGCAAUAUUACGGAUA | -3.27 ± 0.31 | -1.81 ± 0.16
CAAAAGCAAUAUUACGGGAA | -2.69 ± 0.23 | -1.13 ± 0.2
CAAAAGCAAUAUUACGGGGU | -4.06 ± 0.2 | -2.7 ± 0.18
CAAAAGCAAUAUUACGGGUG | -0.689 ± 0.046 | -0.361 ± 0.076
CAAAAGCAAUAUUACGGUGC | -3.76 ± 0.24 | -2.8 ± 0.24
CAAAAGCAAUAUUACGGUUU | -2.93 ± 0.11 | -1.21 ± 0.1
CAAAAGCAAUAUUACGUACG | -0.125 ± 0.061 | 0.143 ± 0.07
CAAAAGCAAUAUUACGUACU | -2.74 ± 0.11 | -0.995 ± 0.09
CAAAAGCAAUAUUACGUAUC | -4.08 ± 0.21 | -1.02 ± 0.15
CAAAAGCAAUAUUACGUGAG | -1.06 ± 0.04 | -0.328 ± 0.069
CAAAAGCAAUAUUACGUGCG | -1 ± 0.051 | -0.35 ± 0.063
CAAAAGCAAUAUUACGUUCU | -1.3 ± 0.14 | -0.926 ± 0.14
CAACAGCAAUAUUACGACGG | -0.0366 ± 0.058 | 0.186 ± 0.085
CAACAGCAAUAUUACGAGAU | -3.74 ± 0.2 | -1.79 ± 0.15
CAACAGCAAUAUUACGAGGG | -2.38 ± 0.073 | -2.2 ± 0.094
CAACAGCAAUAUUACGAGGU | -4.43 ± 0.29 | -2.24 ± 0.17
CAACAGCAAUAUUACGAUAG | -0.377 ± 0.052 | 0.653 ± 0.07
CAACAGCAAUAUUACGAUUG | -2.22 ± 0.063 | -1.42 ± 0.073
CAACAGCAAUAUUACGCAGU | -2.78 ± 0.19 | -3.62 ± 0.3

Sequence | self-splicing fitness (ln) (30 °C) | self-splicing fitness (ln) (37 °C)
CAACAGCAAUAUUACGCAUU | -3.14 ± 0.091 | -1.79 ± 0.089
CAACAGCAAUAUUACGCCAU | -3.25 ± 0.11 | -2.94 ± 0.14
CAACAGCAAUAUUACGCCCG | -0.408 ± 0.098 | 0.465 ± 0.12
CAACAGCAAUAUUACGCGUG | -4.02 ± 0.22 | -3.31 ± 0.16
CAACAGCAAUAUUACGCUCC | -1.72 ± 0.098 | -0.675 ± 0.14
CAACAGCAAUAUUACGCUGA | -3.74 ± 0.2 | -3.02 ± 0.2
CAACAGCAAUAUUACGGGUA | -3.03 ± 0.12 | -1.22 ± 0.084
CAACAGCAAUAUUACGGGUG | -1.65 ± 0.051 | -0.569 ± 0.057
CAACAGCAAUAUUACGGUAU | -3.52 ± 0.1 | -1.9 ± 0.09
CAACAGCAAUAUUACGGUUC | -1.89 ± 0.075 | -1.34 ± 0.1
CAACAGCAAUAUUACGUACG | -0.0141 ± 0.079 | 0.194 ± 0.11
CAACAGCAAUAUUACGUCAU | -3.92 ± 0.12 | -1.86 ± 0.1
CAACAGCAAUAUUACGUCUU | -1.48 ± 0.061 | -0.62 ± 0.07
CAACAGCAAUAUUACGUUUA | -1.62 ± 0.086 | -0.887 ± 0.073
CAAGAGCAAUAUUACGAAAC | -2.91 ± 0.36 | 
CAAGAGCAAUAUUACGAAGA | -1.75 ± 0.35 | -3.14 ± 0.43
CAAGAGCAAUAUUACGAAUA | -2.52 ± 0.34 | -2.28 ± 0.36
CAAGAGCAAUAUUACGAUGG | -1.1 ± 0.091 | -0.943 ± 0.077
CAAGAGCAAUAUUACGCAUG | -3.69 ± 0.44 | -2.53 ± 0.29
CAAGAGCAAUAUUACGCCUA |  | -1.91 ± 0.43
CAAGAGCAAUAUUACGCGGG | -2.7 ± 0.25 | -2.89 ± 0.34
CAAGAGCAAUAUUACGCGGU | -3.05 ± 0.17 | -1.81 ± 0.21
CAAGAGCAAUAUUACGCUAG |  | -2.98 ± 0.35
CAAGAGCAAUAUUACGGACU |  | -2.75 ± 0.28
